In US20150344570A1 (published 2015):

T1: FcγRIIb extracellular domain with C-terminal His tag (human, UniProt P31994 43-217)
T1 construct: extracellular domain; soluble analyte in Biacore; also called FcgRIIb; not shown: His tag at the C terminus
T1 sequence (looked up): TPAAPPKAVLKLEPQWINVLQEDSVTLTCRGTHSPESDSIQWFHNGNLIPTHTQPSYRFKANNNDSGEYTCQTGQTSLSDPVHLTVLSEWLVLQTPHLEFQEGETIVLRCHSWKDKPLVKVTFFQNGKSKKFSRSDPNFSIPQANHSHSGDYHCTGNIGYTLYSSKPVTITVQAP


Assays:
[1] = biological target: T1, FcγRIIb extracellular domain with …; test: SPR, binding relative to GpH7-A5/GpH7-B3/GpL16-k0 = 100
[2] = biological target: T2, FcγRIa extracellular domain with C-terminal His tag (human, UniProt P12314 16-292); test: as above
T2 construct: extracellular domain; soluble analyte in Biacore; also called FcgRI; not shown: His tag at the C terminus
T2 sequence (P12314 16-292): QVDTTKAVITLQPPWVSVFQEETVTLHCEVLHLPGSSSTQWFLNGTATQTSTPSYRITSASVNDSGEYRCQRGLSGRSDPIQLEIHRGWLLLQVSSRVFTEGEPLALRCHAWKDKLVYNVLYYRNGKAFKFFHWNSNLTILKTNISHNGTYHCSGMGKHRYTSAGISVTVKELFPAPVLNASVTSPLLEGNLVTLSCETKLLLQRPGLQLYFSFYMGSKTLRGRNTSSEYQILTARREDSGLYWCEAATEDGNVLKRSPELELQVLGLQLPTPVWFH

| Binder | He/Con_2b [1] | He/Con_1a [2] |
| --- | --- | --- |
| GpH7-A5/GpH7-B3 variant E333_04F/GpL16-k0 (antibody, human IgG1, kappa, change in the GpH7-B3 H chain only; also called He Ab) heavy 1: not shown heavy 2: not shown light: DIVMTQSPLSLPVTPGEPASISCQASESLVHSNRNTYLHWYLQKPGQSPQLLIYKVSNRFSGVPDRFSGSGSGTDFTLKISRVEAEDVGVYYCSQNTHVPPTFGQGTKVEIERTVAAPSVFIFPPSDEQLKSGTASVVCLLNNFYPREAKVQWKVDNALQSGNSQESVTEQDSKDSTYSLSSTLTLSKADYEKHKVYACEVTHQGLSSPVTKSFNRGEC | 94.6 % of control | 102 % of control |
| GpH7-A5/GpH7-B3 variant K334_09D/GpL16-k0 (antibody, human IgG1, kappa, change in the GpH7-B3 H chain only; also called He Ab) heavy 1: not shown heavy 2: not shown light: DIVMTQSPLSLPVTPGEPASISCQASESLVHSNRNTYLHWYLQKPGQSPQLLIYKVSNRFSGVPDRFSGSGSGTDFTLKISRVEAEDVGVYYCSQNTHVPPTFGQGTKVEIERTVAAPSVFIFPPSDEQLKSGTASVVCLLNNFYPREAKVQWKVDNALQSGNSQESVTEQDSKDSTYSLSSTLTLSKADYEKHKVYACEVTHQGLSSPVTKSFNRGEC | 94.8 % of control | 106 % of control |
| GpH7-A5/GpH7-B3 variant E333_13S/GpL16-k0 (antibody, human IgG1, kappa, change in the GpH7-B3 H chain only; also called He Ab) heavy 1: not shown heavy 2: not shown light: DIVMTQSPLSLPVTPGEPASISCQASESLVHSNRNTYLHWYLQKPGQSPQLLIYKVSNRFSGVPDRFSGSGSGTDFTLKISRVEAEDVGVYYCSQNTHVPPTFGQGTKVEIERTVAAPSVFIFPPSDEQLKSGTASVVCLLNNFYPREAKVQWKVDNALQSGNSQESVTEQDSKDSTYSLSSTLTLSKADYEKHKVYACEVTHQGLSSPVTKSFNRGEC | 81.8 % of control | 103 % of control |
| GpH7-A5/GpH7-B3 variant E333_05P/GpL16-k0 (antibody, human IgG1, kappa, change in the GpH7-B3 H chain only; also called He Ab) heavy 1: not shown heavy 2: not shown light: DIVMTQSPLSLPVTPGEPASISCQASESLVHSNRNTYLHWYLQKPGQSPQLLIYKVSNRFSGVPDRFSGSGSGTDFTLKISRVEAEDVGVYYCSQNTHVPPTFGQGTKVEIERTVAAPSVFIFPPSDEQLKSGTASVVCLLNNFYPREAKVQWKVDNALQSGNSQESVTEQDSKDSTYSLSSTLTLSKADYEKHKVYACEVTHQGLSSPVTKSFNRGEC | 97.7 % of control | 102 % of control |

Further lines, results first:

| He/Con_2b [1] | He/Con_1a [2] | Binder |
| --- | --- | --- |
| 90.1 % of control | 109 % of control | GpH7-A5/GpH7-B3 variant I336_01G/GpL16-k0 (antibody, human IgG1, kappa, change in the GpH7-B3 H chain only; also called He Ab) heavy 1: not shown heavy 2: not shown light: DIVMTQSPLSLPVTPGEPASISCQASESLVHSNRNTYLHWYLQKPGQSPQLLIYKVSNRFSGVPDRFSGSGSGTDFTLKISRVEAEDVGVYYCSQNTHVPPTFGQGTKVEIERTVAAPSVFIFPPSDEQLKSGTASVVCLLNNFYPREAKVQWKVDNALQSGNSQESVTEQDSKDSTYSLSSTLTLSKADYEKHKVYACEVTHQGLSSPVTKSFNRGEC |
| 40.5 % of control | 102 % of control | GpH7-A5/GpH7-B3 variant P329_02A/GpL16-k0 (antibody, human IgG1, kappa, change in the GpH7-B3 H chain only; also called He Ab) heavy 1: not shown heavy 2: not shown light: DIVMTQSPLSLPVTPGEPASISCQASESLVHSNRNTYLHWYLQKPGQSPQLLIYKVSNRFSGVPDRFSGSGSGTDFTLKISRVEAEDVGVYYCSQNTHVPPTFGQGTKVEIERTVAAPSVFIFPPSDEQLKSGTASVVCLLNNFYPREAKVQWKVDNALQSGNSQESVTEQDSKDSTYSLSSTLTLSKADYEKHKVYACEVTHQGLSSPVTKSFNRGEC |
| 86.1 % of control | 102 % of control | GpH7-A5/GpH7-B3 variant E333_14T/GpL16-k0 (antibody, human IgG1, kappa, change in the GpH7-B3 H chain only; also called He Ab) heavy 1: not shown heavy 2: not shown light: DIVMTQSPLSLPVTPGEPASISCQASESLVHSNRNTYLHWYLQKPGQSPQLLIYKVSNRFSGVPDRFSGSGSGTDFTLKISRVEAEDVGVYYCSQNTHVPPTFGQGTKVEIERTVAAPSVFIFPPSDEQLKSGTASVVCLLNNFYPREAKVQWKVDNALQSGNSQESVTEQDSKDSTYSLSSTLTLSKADYEKHKVYACEVTHQGLSSPVTKSFNRGEC |
| 92.5 % of control | 104 % of control | GpH7-A5/GpH7-B3 variant K334_01G/GpL16-k0 (antibody, human IgG1, kappa, change in the GpH7-B3 H chain only; also called He Ab) heavy 1: not shown heavy 2: not shown light: DIVMTQSPLSLPVTPGEPASISCQASESLVHSNRNTYLHWYLQKPGQSPQLLIYKVSNRFSGVPDRFSGSGSGTDFTLKISRVEAEDVGVYYCSQNTHVPPTFGQGTKVEIERTVAAPSVFIFPPSDEQLKSGTASVVCLLNNFYPREAKVQWKVDNALQSGNSQESVTEQDSKDSTYSLSSTLTLSKADYEKHKVYACEVTHQGLSSPVTKSFNRGEC |
| 90.3 % of control | 105 % of control | GpH7-A5/GpH7-B3 variant I336_03V/GpL16-k0 (antibody, human IgG1, kappa, change in the GpH7-B3 H chain only; also called He Ab) heavy 1: not shown heavy 2: not shown light: DIVMTQSPLSLPVTPGEPASISCQASESLVHSNRNTYLHWYLQKPGQSPQLLIYKVSNRFSGVPDRFSGSGSGTDFTLKISRVEAEDVGVYYCSQNTHVPPTFGQGTKVEIERTVAAPSVFIFPPSDEQLKSGTASVVCLLNNFYPREAKVQWKVDNALQSGNSQESVTEQDSKDSTYSLSSTLTLSKADYEKHKVYACEVTHQGLSSPVTKSFNRGEC |
| 94.4 % of control | 101 % of control | GpH7-A5/GpH7-B3 variant E333_15Y/GpL16-k0 (antibody, human IgG1, kappa, change in the GpH7-B3 H chain only; also called He Ab) heavy 1: not shown heavy 2: not shown light: DIVMTQSPLSLPVTPGEPASISCQASESLVHSNRNTYLHWYLQKPGQSPQLLIYKVSNRFSGVPDRFSGSGSGTDFTLKISRVEAEDVGVYYCSQNTHVPPTFGQGTKVEIERTVAAPSVFIFPPSDEQLKSGTASVVCLLNNFYPREAKVQWKVDNALQSGNSQESVTEQDSKDSTYSLSSTLTLSKADYEKHKVYACEVTHQGLSSPVTKSFNRGEC |
